The conditions of this data set: Bacillus amyloliquefaciens, Thermal, DSC, Potassium acetate 50 mM, reversible: yes, whole UniProt chain shown; for unfolding free energy: 25 °C.

The values below come from FireProtDB (doi:10.1021/bi00179a018).

Broadly, the Tm is the temperature at which the thermal transition is half complete.

B1: Ribonuclease wild type, P00648 (protein)
chain: MMKMEGIALKKRLSWISVCLLVLVSAAGMLFSTAAKTETSSHKAHTEAQVINTFDGVADYLQTYHKLPDNYITKSEAQALGWVASKGNLADVAPGKSIGGDIFSNREGKLPGKSGRTWREADINYTSGFRNSDRILYSSDWLIYKTTDHYQTFTKIR
As to B1, the Tm by setting is: (pH 2) 24 °C; (pH 2.5) 31.6 °C; (pH 3.5) 46.7 °C; (pH 4) 50.5 °C; (pH 4.5) 53 °C; (pH 5) 53.9 °C. Also, the “unfolding enthalpy (calorimetric)” value is, setting by setting: (pH 2) 82.5 kcal/mol; (pH 2.5) 94.3 kcal/mol; (pH 3.5) 119 kcal/mol; (pH 4) 125 kcal/mol; (pH 4.5) 129 kcal/mol; (pH 5) 131 kcal/mol. In addition, the unfolding free energy is 4.4 kcal/mol (pH 3); 6.79 kcal/mol (pH 3.5); 8.13 kcal/mol (pH 4); 9.02 kcal/mol (pH 4.5); 9.35 kcal/mol (pH 5).
